Columns and labels:
Assay in all cases: cell_activity
[1] = tested on: ssMYF5 1.1 TALEN right (synthetic (Xanthomonas TALE-FokI)?); details: TALEN pair with P3, pig fibroblasts; site printed on top strand
[2] = tested on: ssMYF6 1.2 TALEN right (synthetic (Xanthomonas TALE-FokI)?); details: TALEN pair with P5, pig fibroblasts; site printed on top strand
[3] = tested on: ssMYOD 1.2 TALEN left (synthetic (Xanthomonas TALE-FokI)?); details: TALEN pair with P2, triplex transfection with HDR oligo, pig fibroblasts, HindIII RFLP
[4] = tested on: ssMYF5 1.1 TALEN left (synthetic (Xanthomonas TALE-FokI)?); details: TALEN pair with P4, triplex transfection with HDR oligo, pig fibroblasts, HindIII RFLP
[5] = tested on: ssMYF6 1.2 TALEN left (synthetic (Xanthomonas TALE-FokI)?); details: TALEN pair with P6, triplex transfection with HDR oligo, pig fibroblasts, HindIII RFLP
[6] = tested on: ssMYOD 1.2 TALEN right (synthetic (Xanthomonas TALE-FokI)?); details: TALEN pair with P1, pig fibroblasts

## AAATCCACCACCATGG (double strand) [ssMYF5 1.1 right half-site]
[1]
  activity (% HDR alleles): 31

## GACAGCAGTGGAGAGGA (double strand) [ssMYF6 1.2 right half-site]
[2]
  activity (% HDR alleles): 36

## CAAGAGGTGCACCAC (double strand) [ssMYOD 1.2 left half-site]
[3]
  activity (% HDR alleles): 14

## GCCTCATGTGGGCCTG (double strand) [ssMYF5 1.1 left half-site]
[4]
  activity (% HDR alleles): 31

## GCCAGGACCAAATGCC (double strand) [ssMYF6 1.2 left half-site]
[5]
  activity (% HDR alleles): 36

## AGGCTGCCCAAGGTGG (double strand) [ssMYOD 1.2 right half-site]
[6]
  activity (% HDR alleles): 14

Reference: patent US20180177166
